This note sets out measurements from article PMC6643271 (Biochemistry, 2018).

Holding throughout (details): 10 mM ATP, 14 mM MgCl2, 100 mM KCl, pH 8.0, 25 °C
The target of series [1] is Cj1418 (L-glutamine kinase) (Campylobacter jejuni, UniProt Q0P8J6).
A further series concerns NC(=O)CC[C@@H](N)C(=O)O. Put plainly: purified protein.
The next series deals with NNC(=O)CC[C@H](N)C(=O)O. Put plainly: purified protein.
The next series concerns N[C@@H](CCC(=O)NO)C(=O)O. Put plainly: purified protein.

Sequence of Cj1418 (L-glutamine kinase) (Q0P8J6 whole entry): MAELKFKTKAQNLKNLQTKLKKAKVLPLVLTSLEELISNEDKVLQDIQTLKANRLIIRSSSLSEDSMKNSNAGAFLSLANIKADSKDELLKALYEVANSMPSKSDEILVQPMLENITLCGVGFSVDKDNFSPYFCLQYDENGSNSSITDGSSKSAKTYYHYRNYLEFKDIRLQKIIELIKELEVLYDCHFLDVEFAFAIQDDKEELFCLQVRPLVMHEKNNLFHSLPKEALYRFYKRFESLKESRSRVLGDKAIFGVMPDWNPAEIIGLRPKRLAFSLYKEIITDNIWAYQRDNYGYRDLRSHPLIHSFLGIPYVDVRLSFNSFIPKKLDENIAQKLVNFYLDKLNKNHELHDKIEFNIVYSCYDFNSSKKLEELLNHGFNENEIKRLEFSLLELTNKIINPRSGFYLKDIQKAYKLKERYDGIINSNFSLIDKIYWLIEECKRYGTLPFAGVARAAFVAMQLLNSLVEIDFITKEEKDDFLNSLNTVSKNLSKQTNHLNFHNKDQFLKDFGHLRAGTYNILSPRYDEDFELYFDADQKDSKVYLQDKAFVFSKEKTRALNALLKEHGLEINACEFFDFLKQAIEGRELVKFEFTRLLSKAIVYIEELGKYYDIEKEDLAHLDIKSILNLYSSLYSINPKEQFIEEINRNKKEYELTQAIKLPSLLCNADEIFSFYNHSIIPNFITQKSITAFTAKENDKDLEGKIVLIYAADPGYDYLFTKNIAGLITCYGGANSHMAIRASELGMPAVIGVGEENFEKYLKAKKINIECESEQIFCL

By Km is commonly meant the substrate concentration at which the rate is half of its maximum. On to `NC(=O)CC[C@H](N)C(=O)O` [compound 1, L-glutamine], for which the Km in series [1] stood at 640 ± 60 µM.
By kcat is commonly meant the number of substrate molecules converted per active site and unit of time at saturation. As usually defined, the kcat/Km is the turnover number divided by the Michaelis constant. As to “Cj1418 (L-glutamine kinase) (Campylobacter jejuni subsp. jejuni NCTC 11168 = ATCC 700819)”, in the series with NC(=O)CC[C@@H](N)C(=O)O, the Km worked out at 10500 ± 1800 µM, the catalytic constant (kcat) worked out at 1.5 ± 0.1 s⁻¹ and the kcat/Km amounted to 140 ± 30 M⁻¹ s⁻¹. In the series with NNC(=O)CC[C@H](N)C(=O)O, the Km is 17200 ± 3800 µM, the kcat was found to be 0.41 ± 0.05 s⁻¹ and the kcat/Km came out at 24 ± 6 M⁻¹ s⁻¹. In addition, in the series with N[C@@H](CCC(=O)NO)C(=O)O, the Michaelis-Menten constant (Km) is 1500 ± 400 µM, the catalytic constant (kcat) was 2.1 ± 0.2 s⁻¹ and the kcat/Km stood at 1400 ± 360 M⁻¹ s⁻¹.
